Data from US20250032605A1 (GENERAL HOSPITAL, published 2025).
Read-outs that look alike come from different tables or passages of the source.

What was measured:
Assay in all cases: BLI with recombinant Fabs, drawn table of KD (µM)
[1] = target: T1, SARS-1 RBD (SARS-CoV receptor binding domain, monomer) (SARS-CoV (SARS-1), UniProt P59594 306-515)
[2] = target: RaTG13
[3] = target: SHC014
[4] = target: T2, WIV1 RBD (WIV1-CoV receptor binding domain, monomer) (WIV1-CoV)
[5] = target: T3, SARS-2 RBD (wild-type SARS-CoV-2 receptor binding domain, monomer) (SARS-CoV-2, UniProt P0DTC2 319-529)
[6] = target: T1, SARS-1 RBD (SARS-CoV receptor binding …); remark: listed apart in the source
[7] = target: RaTG13; remark: listed apart in the source
[8] = target: SHC014; remark: listed apart in the source
[9] = target: T2, WIV1 RBD (WIV1-CoV receptor binding …); remark: listed apart in the source
[10] = target: T3, SARS-2 RBD (wild-type SARS-CoV-2 …); remark: listed apart in the source

B1: Ab19 Fab (Fab, V domains shown)
VH: QVQLQQSGAELARPGASVKLSCKASGYPFTSYGINWVKQRTGQGLEWIGEIYPRIGNTYYNEKFKGKATLTADKSSSTAYMEFRSLTSEDSAVYFCARSWNSNYGEYYFDYWGQGTTLTVS
VL: DIVMTQSHKFMSTSIGDRVSITCKASHDVSTAVAWYQQKPGQSPKLLIYWASTRHTGVPDRFTGSGSGTDYTLTIRSVQAEDLALYYCQQHYSTPYTFGGGTKLEIK
Kd [1]: > 100000 nM
Kd [2]: > 100000 nM
Kd [3]: > 100000 nM
Kd [4]: > 100000 nM
Kd [5]: 2000 nM
Kd [6]: > 100000 nM
Kd [7]: > 100000 nM
Kd [8]: > 100000 nM
Kd [9]: > 100000 nM
Kd [10]: 2000 nM

B2: Ab20 Fab (Fab, V domains shown)
VH: EVQLQQSGPELVKPGASVKISCKASGFSFTGYSMNWMKQSPEKSLEWIGEINPTTGGTTYNQKFKAKATLTVDKSSSTAYIQLKSLTSEDSAVYYCARGRADYWGQGTTLTVSS
VL: DIVLTQSPASLAVSLGQRATISCRASESVEYYGTGLVQWFQQKPGQPPKLLIYAASNVESGVPARFSGSGSGTDFSLNIHSVEEDDIAMYFCHQSRKLPWTFGGGTKLEIK
Kd [1]: > 100000 nM
Kd [2]: > 100000 nM
Kd [3]: > 100000 nM
Kd [4]: > 100000 nM
Kd [6]: > 100000 nM
Kd [7]: > 100000 nM
Kd [8]: > 100000 nM
Kd [9]: > 100000 nM
Kd [10]: 30 nM

B3: Ab15 Fab (Fab, V domains shown)
VH: EVQLQQSGPELVKPGASVKISCKASGYSFTGYYMNWVKQSPEKSLEWIGEINPNFGGTTYNQKFKAKATLTVDKSSSTAYMQLKSLTSEDSAVYYCARYYGNLYAMDYWGQGTSVTVS
VL: DILMTQSPSSMSVSLGDTVSITCHASQGISSNIGWLQQKPGKSFKGLIYHGTNLEDGVPSRFSGSGSGAAYSLTISSLESEDFADYYCVQYTHFPYTFGGGTKLEIK
Kd [2]: 1200 nM
Kd [5]: 1100 nM
Kd [7]: 1200 nM
Kd [10]: 1100 nM

B4: Ab17 Fab (Fab, V domains shown)
VH: EVQLQQSGPELVKPGASVKISCKASGYSFTDYYMNWVKQSPEKSLEWIGEINPNTGGTTYNQKFKAKATLTVDKSSSTAYMQLKSLTSEDSAVYYCARYYGNLYAMDYWGQGTSVTVSS
VL: DILMTQSPSSMSVSLGDTVSITCHASQGISSNIGWLQQKPGKSFKGLIYHGTNLEDGVPSRFSGSGSGADYSLTISSLESEDFADYYCVQYVQFPYTLGGGTKLEIK
Kd [6]: 80 nM
Kd [7]: 180 nM
Kd [8]: 90 nM
Kd [9]: 370 nM
Kd [10]: 70 nM

B5: Ab16 Fab (Fab, V domains shown)
VH: EVQLQQSGPELVKPGASVKISCKASGYSFNNYYMNWVKQSPEKSLEWIGEINPNSGYTSYNQKFRAKATLTVDKSSTTAYMQLKSLTSEDSAVYYCARYFGNLFAMDFWGQGTSVTVS
VL: DILMTQSPSSMSVSLGDTVSITCHASQGIGSNIGWLQQKPGKSFKGLIYLGTNLEDGVPSRFSGSGSGADYSLTISSLESEDFADYYCVQYVQFPYTFGGGTKLEIK
Kd [6]: 100 nM
Kd [7]: 200 nM
Kd [8]: 90 nM
Kd [9]: 210 nM
Kd [10]: 30 nM
